B1: [^177Lu]-Compound A-HuMIGF-1R (antibody, V domains shown)
VH: QVQLVQSGAEVVKPGASVKLSCKASGYTFTSYWMHWVKQRPGQGLEWIGEINPSNGRTNYNQKFQGKATLTVDKSSSTAYMQLSSLTSEDSAVYYFARGRPDYYGSSKWYFDVWGQGTTVTVSSASTKGPSVFPLAPSSKSTSGGTAALG
VL: DVVMTQTPLSLPVSLGDPASISCRSSQSIVHSNVNTYLEWYLQKPGQSPRLLIYKVSNRFSGVPDRFSGSGAGTDFTLRISRVEAEDLGIYYCFQGSHVPPTFGGGTKLEIKRTVAAPSVFIFPPSDEQLKSGTASVVCLLNNFYPREAK
notes: Whole antibody HuMIGF-1R (AVE1642, humanized EM164; MALDI m/z about 149835) conjugated with the chelate Compound A (DOTA-GA anhydride) and loaded with 177Lu; also called 177Lu-DOTA-GA-AVE1642; (Compound A)-HuMIGF-1R radiolabelled with Lu-177
B2: [^177Lu]-Compound B-HuMIGF-1R (antibody, V domains shown)
VH: B1 VH
VL: B1 VL
notes: Whole antibody HuMIGF-1R (AVE1642) conjugated with the chelate Compound B (DOTA-GA with an 11-aminoundecanoyl linker, TFP ester) and loaded with 177Lu; also called Compound B-HuMIGF-1R radiolabelled with Lu-177
B3: [^177Lu]-Compound C-HuMIGF-1R (antibody, V domains shown)
VH: B1 VH
VL: B1 VL
notes: Whole antibody HuMIGF-1R (AVE1642) conjugated with the chelate Compound C (DOTA-GA with a PEG3 linker, TFP ester) and loaded with 177Lu; also called Compound C-HuMIGF-1R radiolabelled with Lu-177

What follows are binders tested against T1, insulin-like growth factor-1 receptor (IGF-1R) (human, UniProt P08069 31-1367) (assay: saturation radioligand binding on A431 cells, 4 C, specific binding fitted to a single-site hyperbola).
T1 construct: whole, on cells; Endogenous receptor on A431 cells ('IGF-1R expressing A431 cell line'); also called IGF-1 receptor
T1 sequence (P08069 31-1367): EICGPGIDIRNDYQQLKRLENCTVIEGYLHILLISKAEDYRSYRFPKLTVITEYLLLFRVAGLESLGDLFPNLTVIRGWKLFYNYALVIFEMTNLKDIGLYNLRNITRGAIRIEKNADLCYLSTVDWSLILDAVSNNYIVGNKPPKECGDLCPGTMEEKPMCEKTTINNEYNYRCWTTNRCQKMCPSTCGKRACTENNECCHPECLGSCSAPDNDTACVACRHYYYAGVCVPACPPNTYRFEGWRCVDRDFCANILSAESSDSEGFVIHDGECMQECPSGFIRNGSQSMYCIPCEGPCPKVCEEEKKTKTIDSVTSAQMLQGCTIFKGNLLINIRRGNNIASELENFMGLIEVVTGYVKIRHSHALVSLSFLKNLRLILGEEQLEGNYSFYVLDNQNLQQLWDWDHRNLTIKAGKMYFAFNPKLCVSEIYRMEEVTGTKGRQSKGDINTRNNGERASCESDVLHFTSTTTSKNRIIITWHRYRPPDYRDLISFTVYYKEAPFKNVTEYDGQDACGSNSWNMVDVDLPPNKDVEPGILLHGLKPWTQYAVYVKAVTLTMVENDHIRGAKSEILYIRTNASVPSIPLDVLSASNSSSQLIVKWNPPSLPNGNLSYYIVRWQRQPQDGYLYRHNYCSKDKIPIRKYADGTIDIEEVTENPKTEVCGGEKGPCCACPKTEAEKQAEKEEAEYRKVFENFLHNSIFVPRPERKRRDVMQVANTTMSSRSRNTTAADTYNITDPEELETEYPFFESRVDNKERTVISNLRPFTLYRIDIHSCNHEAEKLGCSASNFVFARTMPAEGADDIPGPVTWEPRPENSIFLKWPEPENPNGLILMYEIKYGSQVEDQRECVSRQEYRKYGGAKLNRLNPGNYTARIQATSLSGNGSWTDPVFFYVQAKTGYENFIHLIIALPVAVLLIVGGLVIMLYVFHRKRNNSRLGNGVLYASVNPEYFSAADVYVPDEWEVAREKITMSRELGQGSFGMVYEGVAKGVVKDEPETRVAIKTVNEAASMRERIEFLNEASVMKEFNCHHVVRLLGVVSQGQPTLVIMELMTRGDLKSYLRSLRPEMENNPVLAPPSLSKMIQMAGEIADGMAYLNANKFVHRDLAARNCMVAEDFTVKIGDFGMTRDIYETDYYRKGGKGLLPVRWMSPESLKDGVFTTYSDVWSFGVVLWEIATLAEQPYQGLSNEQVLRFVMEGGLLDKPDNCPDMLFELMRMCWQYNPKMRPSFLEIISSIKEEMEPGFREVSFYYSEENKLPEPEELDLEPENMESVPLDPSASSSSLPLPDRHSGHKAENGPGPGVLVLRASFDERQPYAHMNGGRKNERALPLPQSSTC
Method: Nonspecific binding is typically assessed by measuring radioconjugate binding in the presence of a fixed concentration of HumIGF-1R that binds to essentially all the receptors. Since all the receptors are occupied by the HumIGF-1R, the radioconjugate only binds nonspecifically. Kd and Bₘₐₓ values are calculated by nonlinear regression analysis and computerized curve fitting.
The purpose of this assay was to ensure that these new radioconjugates maintained binding characteristics consistent with the native antibody in an IGF-1R expressing A431 cell line. Twenty-four hours prior to the start of the experiment, 1.5×10⁵ A431 cells were seeded in 48-well microplates in 500 μl supplemented medium. The radioconjugate was diluted with binding buffer (PBS+0.5% BSA) to a range of concentrations from 0.08 nM to 40 nM; final assay concentration 0.04 to 20 nM. At the start of the assay, the media is aspirated, discarded and 500 μI of serum-free DMEM was added to each well. The plates were incubated at 37° C. for 1 hour. Following incubation, media was aspirated from each well and discarded. The cells were washed and 100 μI of binding buffer (total binding) or 4 μM cold-antibody (non-specific binding) added to designated wells. Plates were incubated at 4° C. for 1 hour with mild shaking. […] The lysates were transferred to counting tubes and run with radioconjugate standards on the Wizard 1470 gamma counter to determine the radioactivity content (in counts per minute (CPM)) for each lysate. The remaining lysate from each well (25 μI) was transferred to a 96-well plate, and the protein content of each lysate determined using a standard protein quantification assay. Total, non-specific and specific ligand binding determinations, mass of bound conjugate in each lysate were calculated by converting lysate CPM to fmol bound using the specific activity of the conjugate standards and then normalizing the fmol bound to the protein content of each lysate(in milligrams). Specific binding was determined by subtracting the non-specific binding from total binding.

Row | Kd [nM] | Binder
1 | 2.9 | B1
2 | 2 | B2
3 | 2.2 | B3

Reference: US20190083662A1 (CENTRE FOR PROBE DEVELOPMENT AND COMMERCIALIZATION, published 2019)
